PMC12069552, “Root stem cell homeostasis in Arabidopsis involves cell-type specific transcription factor complexes” (EMBO Reports, 2025)

What was measured:
[1] = target: T1, WOX5-mV(N) BRAVO-mV(C) heterodimer (BiFC donor) (Arabidopsis thaliana, UniProt Q8H1D2 1-182; Q6R053 1-323); assay: split reporter (BiFC, NanoBiT) + FRET or BRET; BiFC-FRET-FLIM in nuclei of N. benthamiana epidermal leaf cells; mVenus donor split into mV(N) and mV(C) on two proteins, third protein with mCherry as acceptor; 'binding' [%]; binding cutoff 10%; conditions: partners not purified
T1 construct: WUSCHEL-RELATED HOMEOBOX 5 (WOX5) of Arabidopsis thaliana; the CDS, described in Burkart et al, 2022; BRAVO, R2R3-MYB transcription factor of Arabidopsis thaliana; the CDS amplified from cDNA; also called WOX5-mV(N) and BRAVO-mV(C); source: N. benthamiana leaf cells, transiently co-expressed, in cells
T1 sequence (looked up) 1: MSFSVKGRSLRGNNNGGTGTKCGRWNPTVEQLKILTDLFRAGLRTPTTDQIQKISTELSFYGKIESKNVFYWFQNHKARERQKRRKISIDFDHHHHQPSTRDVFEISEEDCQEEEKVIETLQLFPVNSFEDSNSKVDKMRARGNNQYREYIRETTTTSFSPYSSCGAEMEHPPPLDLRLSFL
T1 sequence (looked up) 2: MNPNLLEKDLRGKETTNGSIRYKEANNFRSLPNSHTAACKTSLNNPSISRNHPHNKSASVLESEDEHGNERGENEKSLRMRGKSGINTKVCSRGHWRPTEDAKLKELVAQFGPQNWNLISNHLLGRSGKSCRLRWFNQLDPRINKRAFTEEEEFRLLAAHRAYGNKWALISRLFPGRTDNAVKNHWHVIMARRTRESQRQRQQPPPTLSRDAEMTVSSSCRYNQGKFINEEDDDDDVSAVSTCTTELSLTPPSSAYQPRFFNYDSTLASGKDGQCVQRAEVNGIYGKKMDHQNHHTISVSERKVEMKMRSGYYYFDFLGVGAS

[2] = target: BES1D-mVenus (Arabidopsis thaliana) (UniProt Q9LN63); assay: FRET or BRET; FRET-FLIM in nuclei of transiently expressing N. benthamiana epidermal leaf cells; mVenus fusion as donor, mCherry fusion as acceptor; 'binding' [%] is the amplitude of the FRET component (number of donor molecules undergoing FRET); binding cutoff 10%; a binding not significantly different from the negative control (mCherry-NLS) is regarded as no interaction
BES1D-mVenus (Arabidopsis thaliana), sequence (Q9LN63 whole entry, the tested form may be a part): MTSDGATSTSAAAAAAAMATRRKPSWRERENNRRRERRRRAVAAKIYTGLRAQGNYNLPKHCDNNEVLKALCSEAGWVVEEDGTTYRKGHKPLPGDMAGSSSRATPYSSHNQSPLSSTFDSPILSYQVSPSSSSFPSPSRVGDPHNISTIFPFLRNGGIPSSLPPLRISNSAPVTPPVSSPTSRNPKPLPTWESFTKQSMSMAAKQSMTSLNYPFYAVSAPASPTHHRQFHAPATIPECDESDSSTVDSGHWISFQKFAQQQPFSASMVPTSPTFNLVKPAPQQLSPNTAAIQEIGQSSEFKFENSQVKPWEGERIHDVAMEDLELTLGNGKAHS

TPL-mVenus = target: T2, TPL-mVenus (Arabidopsis thaliana, UniProt Q94AI7 1-1131); assay: as above; conditions: partners not purified
T2 construct: TOPLESS (TPL) of Arabidopsis thaliana; the CDS amplified from cDNA; FRET donor; source: N. benthamiana abaxial epidermal leaf cells, transiently expressed (β-estradiol inducible), in cells
T2 sequence (looked up): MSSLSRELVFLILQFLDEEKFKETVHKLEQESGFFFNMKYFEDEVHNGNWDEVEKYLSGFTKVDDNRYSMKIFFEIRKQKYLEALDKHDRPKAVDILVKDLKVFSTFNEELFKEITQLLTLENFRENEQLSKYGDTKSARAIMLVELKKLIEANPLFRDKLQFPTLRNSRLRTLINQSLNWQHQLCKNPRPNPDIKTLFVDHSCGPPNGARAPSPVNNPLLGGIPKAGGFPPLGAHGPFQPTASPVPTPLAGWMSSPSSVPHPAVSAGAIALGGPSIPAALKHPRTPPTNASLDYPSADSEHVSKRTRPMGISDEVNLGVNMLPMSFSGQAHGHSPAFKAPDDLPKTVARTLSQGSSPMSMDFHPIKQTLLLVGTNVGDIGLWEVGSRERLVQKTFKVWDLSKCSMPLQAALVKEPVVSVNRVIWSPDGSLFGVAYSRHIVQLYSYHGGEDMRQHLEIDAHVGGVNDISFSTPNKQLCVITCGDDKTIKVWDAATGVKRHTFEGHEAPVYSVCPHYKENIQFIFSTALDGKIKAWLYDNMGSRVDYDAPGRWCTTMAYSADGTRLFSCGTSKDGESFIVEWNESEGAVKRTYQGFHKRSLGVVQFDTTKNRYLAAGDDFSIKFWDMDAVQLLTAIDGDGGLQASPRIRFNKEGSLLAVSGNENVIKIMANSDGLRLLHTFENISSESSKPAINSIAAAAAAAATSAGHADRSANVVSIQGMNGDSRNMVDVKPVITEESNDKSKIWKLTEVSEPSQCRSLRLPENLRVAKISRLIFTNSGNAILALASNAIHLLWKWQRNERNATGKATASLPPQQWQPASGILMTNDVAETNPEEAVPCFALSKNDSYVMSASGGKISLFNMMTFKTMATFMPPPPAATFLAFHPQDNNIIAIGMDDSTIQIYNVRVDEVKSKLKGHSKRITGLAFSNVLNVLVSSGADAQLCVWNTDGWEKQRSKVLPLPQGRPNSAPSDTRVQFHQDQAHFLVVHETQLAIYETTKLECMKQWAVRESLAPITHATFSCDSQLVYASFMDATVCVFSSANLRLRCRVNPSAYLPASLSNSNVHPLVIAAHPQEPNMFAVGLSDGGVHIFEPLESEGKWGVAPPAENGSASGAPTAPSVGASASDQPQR

binding (FRET-FLIM, share of donor molecules undergoing FRET) [1]: 31.5 ± 8.5%
binding (FRET-FLIM, share of donor molecules undergoing FRET) [2]: 16.9%
binding (FRET-FLIM, share of donor molecules undergoing FRET) (TPL-mVenus): 13.5 ± 4.3%
B1: PLT3-mCherry (PLETHORA 3) (natural protein, Arabidopsis thaliana, UniProt Q52QU2 1-581, looked up)
chain: MMAPMTNWLTFSLSPMEMLRSSDQSQFVSYDASSAASSSPYLLDNFYGWSNQKPQEFFKEEAQLAAAASMADSTILTTFVDPQSHHSQNHIPKLEDFLGDSSSIVRYSDNSQTDTQDSSLTQIYDPRHHHNQTGFYSDHHDFKTMAGFQSAFSTNSGSEVDDSASIGRTHLAGDYLGHVVESSGPELGFHGGSTGALSLGVNVNNNTNHRNDNDNHYRGNNNGERINNNNNNDNEKTDSEKEKAVVAVETSDCSNKKIADTFGQRTSIYRGVTRHRWTGRYEAHLWDNSCRREGQARKGRQGGYDKEDKAARAYDLAALKYWNATATTNFPITNYSKEVEEMKHMTKQEFIASLRRKSSGFSRGASIYRGVTRHHQQGRWQARIGRVAGNKDLYLGTFATEEEAAEAYDIAAIKFRGINAVTNFEMNRYDVEAIMKSALPIGGAAKRLKLSLEAAASSEQKPILGHHQLHHFQQQQQQQQLQLQSSPNHSSINFALCPNSAVQSQQIIPCGIPFEAAALYHHHQQQQQHQQQQQQQNFFQHFPANAASDSTGSNNNSNVQGTMGLMAPNPAEFFLWPNQSY
notes: PLETHORA 3 (PLT3), APETALA2-type transcription factor of Arabidopsis thaliana; CDS and construct described in Burkart et al, 2022; FRET acceptor; construct XVE:PLT3-mCherry of Burkart et al, 2022; also called full-length PLT3; source: N. benthamiana abaxial epidermal leaf cells, transiently expressed (β-estradiol inducible), in cells
